{"source": "paper PMC10786891", "about": "“Massively parallel profiling of RNA-targeting CRISPR-Cas13d”", "binders": {"B1": {"name": "target 1 MT 5'PFS GCU 3'PFS CUC (mixed)", "RNA 1": "CACCCGUGCAAAAAUGCAGGGGUCUAAAACUGAGCGGAUAACCUCUCUAUGG", "RNA 2": "GGGAAUGGAUCCACAUCUACGAAUUCGCUCCAUAGAGAGGUUAUCCGCUCACUCAGAUCGGAAGAGCACACGU"}, "B2": {"name": "target 1 MT 5'PFS CAA 3'PFS UAA (mixed)", "RNA 1": "B1 RNA 1", "RNA 2": "B1 RNA 2 with G27C, C28A, U29A, C52U, U53A, C54A"}, "B3": {"name": "target 1 MT 5'PFS GCA 3'PFS ACU (mixed)", "RNA 1": "B1 RNA 1", "RNA 2": "B1 RNA 2 with U29A, C52A, U53C, C54U"}, "B4": {"name": "target 1 MT 5'PFS UGG 3'PFS ACU (mixed)", "RNA 1": "B1 RNA 1", "RNA 2": "B1 RNA 2 with G27U, C28G, U29G, C52A, U53C, C54U"}, "B5": {"name": "target 1 MT 5'PFS AGC 3'PFS AUA (mixed)", "RNA 1": "B1 RNA 1", "RNA 2": "B1 RNA 2 with G27A, C28G, U29C, C52A, C54A"}, "B6": {"name": "target 1 MT 5'PFS CAA 3'PFS UAG (mixed)", "RNA 1": "B1 RNA 1", "RNA 2": "B1 RNA 2 with G27C, C28A, U29A, C52U, U53A, C54G"}, "B7": {"name": "target 1 MT 5'PFS GCU 3'PFS CUA (mixed)", "RNA 1": "B1 RNA 1", "RNA 2": "B1 RNA 2 with C54A"}, "B8": {"name": "target 1 MT 5'PFS UUU 3'PFS CGU (mixed)", "RNA 1": "B1 RNA 1", "RNA 2": "B1 RNA 2 with G27U, C28U, U53G, C54U"}, "B9": {"name": "target 1 MT 5'PFS CAA 3'PFS UAU (mixed)", "RNA 1": "B1 RNA 1", "RNA 2": "B1 RNA 2 with G27C, C28A, U29A, C52U, U53A, C54U"}, "B10": {"name": "target 1 MT 5'PFS GGC 3'PFS CGC (mixed)", "RNA 1": "B1 RNA 1", "RNA 2": "B1 RNA 2 with C28G, U29C, U53G"}, "B11": {"name": "target 1 insC 3' of 20,insC 3' of 20 (mixed)", "RNA 1": "B1 RNA 1", "RNA 2": "GGGAAUGGAUCCACAUCUACGAAUUCGUACCACCUAGAGAGGUUAUCCGCUCACCGAGAUCGGAAGAGCACACGU"}, "B12": {"name": "target 1 MT 5'PFS CAA 3'PFS UAC (mixed)", "RNA 1": "B1 RNA 1", "RNA 2": "B1 RNA 2 with G27C, C28A, U29A, C52U, U53A"}, "B13": {"name": "target 1 MT 5'PFS GGC 3'PFS AGA (mixed)", "RNA 1": "B1 RNA 1", "RNA 2": "B1 RNA 2 with C28G, U29C, C52A, U53G, C54A"}, "B14": {"name": "target 1 MT 5'PFS GCU 3'PFS CUU (mixed)", "RNA 1": "B1 RNA 1", "RNA 2": "B1 RNA 2 with C54U"}, "B15": {"name": "target 1 MT 5'PFS GCA 3'PFS ACG (mixed)", "RNA 1": "B1 RNA 1", "RNA 2": "B1 RNA 2 with U29A, C52A, U53C, C54G"}, "B16": {"name": "target 1 MT 5'PFS GCA 3'PFS CCG (mixed)", "RNA 1": "B1 RNA 1", "RNA 2": "B1 RNA 2 with U29A, U53C, C54G"}, "B17": {"name": "target 1 MT 5'PFS CAG 3'PFS AAG (mixed)", "RNA 1": "B1 RNA 1", "RNA 2": "B1 RNA 2 with G27C, C28A, U29G, C52A, U53A, C54G"}, "B18": {"name": "target 1 MT 5'PFS UGG 3'PFS ACG (mixed)", "RNA 1": "B1 RNA 1", "RNA 2": "B1 RNA 2 with G27U, C28G, U29G, C52A, U53C, C54G"}, "B19": {"name": "target 1 MT 5'PFS AGU 3'PFS CCG (mixed)", "RNA 1": "B1 RNA 1", "RNA 2": "B1 RNA 2 with G27A, C28G, U53C, C54G"}}, "target": "T1, EsCas13d, nuclease-dead (Eubacterium siraeum, UniProt B0MS50, R295A;H300A;R849A;H854A)", "T1 sequence": "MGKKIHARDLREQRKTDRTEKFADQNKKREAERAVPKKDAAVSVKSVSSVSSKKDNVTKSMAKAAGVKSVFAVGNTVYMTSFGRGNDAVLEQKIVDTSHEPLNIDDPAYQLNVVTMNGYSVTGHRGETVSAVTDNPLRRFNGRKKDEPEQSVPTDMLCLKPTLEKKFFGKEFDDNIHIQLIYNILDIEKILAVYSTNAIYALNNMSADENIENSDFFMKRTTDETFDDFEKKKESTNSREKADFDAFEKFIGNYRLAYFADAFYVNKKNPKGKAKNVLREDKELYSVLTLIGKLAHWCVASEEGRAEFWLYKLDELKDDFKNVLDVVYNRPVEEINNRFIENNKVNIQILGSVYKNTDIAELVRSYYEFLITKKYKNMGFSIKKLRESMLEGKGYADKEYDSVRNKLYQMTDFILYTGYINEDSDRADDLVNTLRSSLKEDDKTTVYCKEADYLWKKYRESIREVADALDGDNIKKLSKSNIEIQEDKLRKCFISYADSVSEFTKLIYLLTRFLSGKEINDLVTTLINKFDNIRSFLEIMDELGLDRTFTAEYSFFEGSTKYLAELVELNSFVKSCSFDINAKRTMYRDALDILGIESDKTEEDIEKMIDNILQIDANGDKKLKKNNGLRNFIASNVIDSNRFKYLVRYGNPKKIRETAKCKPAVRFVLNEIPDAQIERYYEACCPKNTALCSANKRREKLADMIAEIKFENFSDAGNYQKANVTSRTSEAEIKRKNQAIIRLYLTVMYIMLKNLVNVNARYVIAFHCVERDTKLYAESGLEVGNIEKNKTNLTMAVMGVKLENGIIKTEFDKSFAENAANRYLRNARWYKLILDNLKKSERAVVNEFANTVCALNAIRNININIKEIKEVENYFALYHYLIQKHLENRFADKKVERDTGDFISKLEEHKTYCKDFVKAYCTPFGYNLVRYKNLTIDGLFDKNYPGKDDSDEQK", "assay": "crRNA (strand 1, pre-loaded); Mg2+; 40 mM Tris-HCl pH 7.5, 150 mM NaCl, 6 mM MgCl2, 1 mM DTT, 0.1% Tween-20, 0.2 mg/ml BSA; 25 C; 10 min per concentration, then washed", "conditions": "tags: His6-TwinStrep-SUMO cleaved; N-terminal SNAP kept (SNAP-Surface 488); label: 3' end held by stalled T7 RNA polymerase", "note": "Positions count from the first letter of the chain named."}
{"binder": "B1", "values": [{"measurement": "Kd", "value": "44 ± 14", "unit": "nM"}]}
{"binder": "B2", "values": [{"measurement": "Kd", "value": "18 ± 9", "unit": "nM"}]}
{"binder": "B3", "values": [{"measurement": "Kd", "value": "18.5 ± 4.5", "unit": "nM"}]}
{"binder": "B4", "values": [{"measurement": "Kd", "value": "~120", "unit": "nM"}]}
{"binder": "B5", "values": [{"measurement": "Kd", "value": "56.5 ± 18.5", "unit": "nM"}]}
{"binder": "B6", "values": [{"measurement": "Kd", "value": "17 ± 6.5", "unit": "nM"}]}
{"binder": "B7", "values": [{"measurement": "Kd", "value": "53 ± 22", "unit": "nM"}]}
{"binder": "B8", "values": [{"measurement": "Kd", "value": "~65", "unit": "nM"}]}
{"binder": "B9", "values": [{"measurement": "Kd", "value": "34.5 ± 15", "unit": "nM"}]}
{"binder": "B10", "values": [{"measurement": "Kd", "value": "15.5 ± 4", "unit": "nM"}]}
{"binder": "B11", "values": [{"measurement": "Kd", "value": "44.7 ± 3.1", "unit": "nM"}]}
{"binder": "B12", "values": [{"measurement": "Kd", "value": "7.65 ± 2.65", "unit": "nM"}]}
{"binder": "B13", "values": [{"measurement": "Kd", "value": "22.5 ± 5", "unit": "nM"}]}
{"binder": "B14", "values": [{"measurement": "Kd", "value": "26 ± 8", "unit": "nM"}]}
{"binder": "B15", "values": [{"measurement": "Kd", "value": "19 ± 5.5", "unit": "nM"}]}
{"binder": "B16", "values": [{"measurement": "Kd", "value": "18.5 ± 8", "unit": "nM"}]}
{"binder": "B17", "values": [{"measurement": "Kd", "value": "28.5 ± 8", "unit": "nM"}]}
{"binder": "B18", "values": [{"measurement": "Kd", "value": "54 ± 17.5", "unit": "nM"}]}
{"binder": "B19", "values": [{"measurement": "Kd", "value": "24.6 ± 7.6", "unit": "nM"}]}
